Experimental findings from the supplement of paper PMC7125110 are described below.

± gives the standard error. For part of these data: Variants at the floor of the assay were thinned out.

B1: glmS ribozyme (parent)
chain: AUAAAAGCGCCAGAACUACAGAAAUGUAGUUGACGAGGAGGAGGUUUAUCGAAUUUUCGGCGGAUGCCUCCAAA

Common to all, as to conditions: with glucosamine-6-phosphate
Data set [1] covers variants of B1. Kind of data set: kcat; higher = faster cleavage; RNA array. In outline: (§1)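 Sequenced MiSeq chips were the platform: E. coli RNA polymerase transcribed barcoded ribozyme variants on them in situ, and a hybridised Cy3 probe tracked these at 37 °C. After glucosamine-6-phosphate (40 μM to 10 mM) in HEPES/KCl/Mg(OAc)2 buffer was flowed in, tiles were imaged over ~14 h. Signals normalised to baseline and to non-cleaving reference variants were reduced to per-tile medians and fit to one- or two-exponential decays to obtain kobs. kcat and KM were derived through weighted Michaelis–Menten fits across concentrations.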

In data set [2] the parent is B1. In words: KM; higher = weaker cofactor use; RNA array. The procedure, abridged: as §1
Variants of B1 are the subject of data set [3]. Kind of data set: self-cleavage kobs at 640 uM GlcN6P; higher = faster cleavage; RNA array. In outline:
as §1

The variants in data set [4] derive from B1. Kind of data set: self-cleavage kobs at 2500 uM GlcN6P; higher = faster cleavage; RNA array. The procedure, abridged:
as §1

The variants in data set [5] derive from B1. Kind of data set: self-cleavage kobs at 10000 uM GlcN6P; higher = faster cleavage; RNA array. The procedure, abridged:
as §1

Data set [6] covers variants of B1. Kind of data set: self-cleavage kobs at 40 uM GlcN6P; higher = faster cleavage; RNA array. The procedure, abridged:
as §1

Data set [7] covers variants of B1. Kind of data set: self-cleavage kobs at 160 uM GlcN6P; higher = faster cleavage; RNA array. In outline:
as §1

As usually defined, the kcat is the number of substrate molecules converted per active site and unit of time at saturation. Usually KM stands for the substrate concentration at which the rate is half of its maximum. For the variant U31A U57A, in data set [1], the turnover number (kcat) was found to be 0.000241 ± 3.5e-06 s⁻¹. Also, the KM in data set [2] was found to be 2390 ± 95 µM. In data set [3], the “self-cleavage kobs at 640 uM GlcN6P” value is 4.97e-05 ± 2.1e-05 s⁻¹. In data set [4], the “self-cleavage kobs at 2500 uM GlcN6P” value is 0.000125 ± 2.8e-05 s⁻¹. Moreover, the “self-cleavage kobs at 10000 uM GlcN6P” value in data set [5] turned out to be 0.000194 ± 2.7e-05 s⁻¹.
Taken in the same sequence, the figures for C16G U31C were 0.000606 ± 0.00011 s⁻¹, 3720 ± 980 µM, 8.88e-05 ± 1.7e-05 s⁻¹, 0.000269 ± 4.6e-05 s⁻¹ and 0.000401 ± 0.00011 s⁻¹.
A39C U56G: the kcat in data set [1] worked out at 0.00414 ± 0.0013 s⁻¹. Moreover, the KM in data set [2] was determined as 4460 ± 1800 µM. Moreover, the “self-cleavage kobs at 40 uM GlcN6P” value in data set [6] turned out to be 5.55e-05 ± 7.3e-06 s⁻¹. Further, the “self-cleavage kobs at 160 uM GlcN6P” value in data set [7] is 0.000133 ± 1.4e-05 s⁻¹. The “self-cleavage kobs at 640 uM GlcN6P” value in data set [3] came out at 0.000539 ± 6.5e-05 s⁻¹. In data set [4], the “self-cleavage kobs at 2500 uM GlcN6P” value is 0.00125 ± 0.00015 s⁻¹. Besides, in data set [5], the “self-cleavage kobs at 10000 uM GlcN6P” value stood at 0.00322 ± 0.00035 s⁻¹.
For U47C C68G, the kcat in data set [1] was 6.88e-05 ± 2.3e-06 s⁻¹. In addition, the KM in data set [2] was 573 ± 80 µM. Besides, the “self-cleavage kobs at 640 uM GlcN6P” value in data set [3] is 3.62e-05 ± 7.3e-06 s⁻¹. The “self-cleavage kobs at 2500 uM GlcN6P” value in data set [4] is 5.33e-05 ± 1.1e-05 s⁻¹. For the same variant, in data set [5], the “self-cleavage kobs at 10000 uM GlcN6P” value was 6.6e-05 ± 7.8e-06 s⁻¹.
For G13U U49G, the kcat in data set [1] turned out to be 1.85e-05 ± 6.3e-06 s⁻¹. Further, the “self-cleavage kobs at 40 uM GlcN6P” value in data set [6] was less than 1e-05 s⁻¹. Also, the “self-cleavage kobs at 160 uM GlcN6P” value in data set [7] was less than 1e-05 s⁻¹.
With U31G U47G A48G, in data set [1], the kcat worked out at 1.96e-05 ± 7.2e-06 s⁻¹.
With A52G U55G, the kcat in data set [1] amounted to 0.00167 ± 0.00021 s⁻¹. Also, the Michaelis constant (KM) in data set [2] stood at 3170 ± 560 µM. For the same variant, the “self-cleavage kobs at 160 uM GlcN6P” value in data set [7] was found to be 8.73e-05 ± 8.7e-06 s⁻¹. For the same variant, in data set [3], the “self-cleavage kobs at 640 uM GlcN6P” value worked out at 0.000252 ± 2.5e-05 s⁻¹. In data set [4], the “self-cleavage kobs at 2500 uM GlcN6P” value is 0.000786 ± 7.4e-05 s⁻¹. The “self-cleavage kobs at 10000 uM GlcN6P” value in data set [5] turned out to be 0.00124 ± 0.00013 s⁻¹.
As to G59A C68G, in data set [1], the kcat amounted to 1.72e-05 ± 2.3e-06 s⁻¹.
As for G40U A52U, in data set [1], the kcat stood at 0.000102 ± 6.2e-06 s⁻¹. The KM in data set [2] is 2510 ± 550 µM. In addition, the “self-cleavage kobs at 2500 uM GlcN6P” value in data set [4] was 4.82e-05 ± 9.8e-06 s⁻¹. Further, the “self-cleavage kobs at 10000 uM GlcN6P” value in data set [5] amounted to 8.17e-05 ± 6.8e-06 s⁻¹.
For G38U G51A, the kcat in data set [1] is less than 1e-05 s⁻¹. In data set [4], the “self-cleavage kobs at 2500 uM GlcN6P” value was less than 1e-05 s⁻¹.
In the case of A6C U56A, the kcat in data set [1] stood at 4.08e-05 ± 9.7e-06 s⁻¹. Further, in data set [5], the “self-cleavage kobs at 10000 uM GlcN6P” value is 3.34e-05 ± 7.8e-06 s⁻¹.
Consider A39G A53G, for which, in data set [1], the kcat came to 0.0916 ± 0.024 s⁻¹. For the same variant, the KM in data set [2] amounted to 2770 ± 830 µM. Also, the “self-cleavage kobs at 40 uM GlcN6P” value in data set [6] was determined as 0.0015 ± 0.00022 s⁻¹. In addition, the “self-cleavage kobs at 160 uM GlcN6P” value in data set [7] was 0.00433 ± 0.00068 s⁻¹. Also, the “self-cleavage kobs at 640 uM GlcN6P” value in data set [3] stood at 0.0194 ± 0.0037 s⁻¹. For the same variant, the “self-cleavage kobs at 2500 uM GlcN6P” value in data set [4] came to 0.0404 ± 0.015 s⁻¹. Besides, in data set [5], the “self-cleavage kobs at 10000 uM GlcN6P” value came to 0.0725 ± 0.019 s⁻¹.
Turning to U54G U56A G63C, in data set [1], the kcat was less than 1e-05 s⁻¹. In data set [6], the “self-cleavage kobs at 40 uM GlcN6P” value was less than 1e-05 s⁻¹. In addition, the “self-cleavage kobs at 160 uM GlcN6P” value in data set [7] is less than 1e-05 s⁻¹.
Regarding C68U C71G, the kcat in data set [1] was 1.73e-05 ± 3.6e-06 s⁻¹. For the same variant, the “self-cleavage kobs at 640 uM GlcN6P” value in data set [3] stood at 2.44e-05 ± 1e-05 s⁻¹. The “self-cleavage kobs at 2500 uM GlcN6P” value in data set [4] was found to be 1.93e-05 ± 8.3e-06 s⁻¹.
Take G29A C67G: the kcat in data set [1] worked out at 0.00016 ± 1.6e-05 s⁻¹. Further, the KM in data set [2] came to 1710 ± 390 µM. The “self-cleavage kobs at 640 uM GlcN6P” value in data set [3] is 4.67e-05 ± 1e-05 s⁻¹. For the same variant, the “self-cleavage kobs at 2500 uM GlcN6P” value in data set [4] amounted to 8.59e-05 ± 1.7e-05 s⁻¹. Further, the “self-cleavage kobs at 10000 uM GlcN6P” value in data set [5] amounted to 0.000145 ± 2.5e-05 s⁻¹.
For the variant A36U G38U, the kcat in data set [1] is less than 1e-05 s⁻¹. The “self-cleavage kobs at 10000 uM GlcN6P” value in data set [5] was less than 1e-05 s⁻¹.
In the case of A39C A53G, the kcat in data set [1] turned out to be 0.00638 ± 0.001 s⁻¹. For the same variant, the KM in data set [2] was found to be 1890 ± 400 µM. Besides, the “self-cleavage kobs at 40 uM GlcN6P” value in data set [6] is 0.000151 ± 1.5e-05 s⁻¹. In addition, in data set [7], the “self-cleavage kobs at 160 uM GlcN6P” value is 0.000404 ± 6.3e-05 s⁻¹. The “self-cleavage kobs at 640 uM GlcN6P” value in data set [3] is 0.00157 ± 0.00027 s⁻¹. The “self-cleavage kobs at 2500 uM GlcN6P” value in data set [4] amounted to 0.00372 ± 0.00061 s⁻¹. The “self-cleavage kobs at 10000 uM GlcN6P” value in data set [5] was found to be 0.00541 ± 0.0007 s⁻¹.
For the variant G38U C70U, in data set [1], the kcat was 1.27e-05 ± 2.6e-06 s⁻¹.
